In the supplement of paper PMC12764529:
± gives the half width of the 95% confidence interval.

Assays:
[1] = folding stability dG unfold from trypsin proteolysis; higher = more stable
Procedure, shortened: (§1)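 Bayesian fitting of sequencing counts gave K50 for each design. Unfolding free energy followed by setting this against a sequence-predicted unfolded-state K50 and a shared folded-state K50, either per protease or with trypsin and chymotrypsin combined. The designs, under 80 residues and lacking cysteine, were digested in a PA-tagged cDNA display format at 11 threefold-diluted protease concentrations and without protease, and only those with AlphaFold2 dimer inter-PAE above 15 were kept.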

[2] = folding stability dG unfold from chymotrypsin proteolysis; higher = more stable
Procedure, shortened: as §1

[3] = folding stability dG unfold (combined trypsin and chymotrypsin); higher = more stable
Procedure, shortened: as §1

Sequence: SAGGSAGGSAGMIVIKNPETKEYYVIKFDGKEYVIELSEDELKELLEKLKGKDVEIKKLPSAGGSAGGSAGG [r11_57_TrROS_Hall]
- folding stability dG unfold [1]: 2.01 ± 0.16 kcal/mol
- folding stability dG unfold [2]: 1.93 ± 0.048 kcal/mol
- folding stability dG unfold [3]: 1.96 ± 0.2 kcal/mol

Sequence: SAGGSAGGSAGMIVLFPLEEKKFIIYDPETGKVEEIEGTPEEVLEYAKKKYPDKEVYLLPSAGGSAGGSAGG [r11_614_TrMRF]
- folding stability dG unfold [1]: 3.25 ± 0.36 kcal/mol
- folding stability dG unfold [2]: 5.19 ± 0.3 kcal/mol
- folding stability dG unfold [3]: 5.15 ± 0.49 kcal/mol

Sequence: SAGGSAGGSAGMKIEIELDENGELRIRITVYNKETKEEVEEFEFTLPLEELEEELRKLLESAGGSAGGSAGG [r11_376_TrROS_Hall]
- folding stability dG unfold [1]: 3.16 ± 0.12 kcal/mol
- folding stability dG unfold [2]: 3.62 ± 0.15 kcal/mol
- folding stability dG unfold [3]: 3.5 ± 0.22 kcal/mol

Sequence: SAGGSAGGSAGMKIEYEHDPNRNWYTVKIDFPNGPPKIPIQVPHDDMPPNDLRDWAKELFSAGGSAGGSAGG [r11_557_TrROS]
- folding stability dG unfold [1]: 0.459 ± 0.12 kcal/mol
- folding stability dG unfold [2]: 0.58 ± 0.33 kcal/mol
- folding stability dG unfold [3]: 0.475 ± 0.28 kcal/mol

Sequence: SAGGSAGGSAGMKIKFPNGKVVEIHMDEDSGNIEIEFPDGKKKEINIPGMSIDDILDYLKSAGGSAGGSAGG [r11_729_TrROS]
- folding stability dG unfold [1]: 1.56 ± 0.036 kcal/mol
- folding stability dG unfold [2]: 1.46 ± 0.033 kcal/mol
- folding stability dG unfold [3]: 1.59 ± 0.045 kcal/mol

Sequence: SAGGSAGGSAGMKKVLIIGGPKEELAKELKEKSPDIEVEFLDPSEDLEEYKKKFDIVIIESAGGSAGGSAGG [r17_225_JUSTAS]
- folding stability dG unfold [1]: -0.387 ± 0.09 kcal/mol
- folding stability dG unfold [2]: 0.255 ± 0.072 kcal/mol
- folding stability dG unfold [3]: 0.0867 ± 0.084 kcal/mol

Sequence: SAGGSAGGSAGMKLPEGWEIVAVYRDKETNKLYLIVRDTKTKKLLIVDLDTKKIISAEELSAGGSAGGSAGG [r11_268_TrROS_Hall]
- folding stability dG unfold [1]: 3.63 ± 0.18 kcal/mol
- folding stability dG unfold [2]: 4.1 ± 0.13 kcal/mol
- folding stability dG unfold [3]: 4.06 ± 0.1 kcal/mol

Sequence: SAGGSAGGSAGMKNKNYKVYTYKINIIDPGYENTTIIVEPNPAKPKAKPITIPIIIVEPASAGGSAGGSAGG [r11_257_TrMRF]
- folding stability dG unfold [1]: 0.57 ± 0.083 kcal/mol
- folding stability dG unfold [2]: 1.03 ± 0.18 kcal/mol
- folding stability dG unfold [3]: 0.797 ± 0.21 kcal/mol

Sequence: SAGGSAGGSAGMKPDDTVTYTITVPHPESGEPLAEIELTYPVGTPIEKVKEEAKILAEKISAGGSAGGSAGG [r11_516_TrMRF]
- folding stability dG unfold [1]: 0.515 ± 0.03 kcal/mol
- folding stability dG unfold [2]: 0.141 ± 0.27 kcal/mol
- folding stability dG unfold [3]: 0.429 ± 0.088 kcal/mol

Sequence: SAGGSAGGSAGMKTLKTTTKVFPGTGVIVTESLVEFPNGSLKKLTKVTYVKNPNPSTTLASAGGSAGGSAGG [r17_41_JUSTAS]
- folding stability dG unfold [1]: 0.474 ± 0.093 kcal/mol
- folding stability dG unfold [2]: 0.545 ± 0.14 kcal/mol
- folding stability dG unfold [3]: 0.602 ± 0.19 kcal/mol

Sequence: SAGGSAGGSAGMKTRTITVSVSPEESEEEVRERVEAELPPGSVVEVTRLPDGTVVVTVEESAGGSAGGSAGG [r17_20_JUSTAS]
- folding stability dG unfold [1]: 0.401 ± 0.043 kcal/mol
- folding stability dG unfold [2]: 1.99 ± 0.035 kcal/mol
- folding stability dG unfold [3]: 1.55 ± 0.048 kcal/mol

Sequence: SAGGSAGGSAGMKTVTETEFDPAAPVVTTTTSLVTLPPDGKPSITSTTTTTTAVAAPAAAASAGGSAGGSAG [r3_138_JUSTAS]
- folding stability dG unfold [1]: -0.0492 ± 0.05 kcal/mol
- folding stability dG unfold [2]: 1.41 ± 0.038 kcal/mol
- folding stability dG unfold [3]: 1.03 ± 0.062 kcal/mol

Sequence: SAGGSAGGSAGMKVAVLTIPENGKPVLVVELPDGGALAFDPDTDAVFLLDDDKIYYLGPASAGGSAGGSAGG [r17_476_TrMRF]
- folding stability dG unfold [1]: 0.0117 ± 0.033 kcal/mol
- folding stability dG unfold [2]: 1.52 ± 0.059 kcal/mol
- folding stability dG unfold [3]: 1.13 ± 0.075 kcal/mol

Sequence: SAGGSAGGSAGMKVEEVPETPVWRFTITRGKKTTIVEVEVPPDEPPDPAEVAAELGYELESAGGSAGGSAGG [r11_1053_JUSTAS]
- folding stability dG unfold [1]: 1.84 ± 0.075 kcal/mol
- folding stability dG unfold [2]: 1.65 ± 0.18 kcal/mol
- folding stability dG unfold [3]: 1.89 ± 0.25 kcal/mol

Sequence: SAGGSAGGSAGMKVKTDPSSGPTVNKAYLENGTLILTTVTYDPSNGTTSTTTTVVPLSLLSAGGSAGGSAGG [r17_287_JUSTAS]
- folding stability dG unfold [1]: 0.433 ± 0.12 kcal/mol
- folding stability dG unfold [2]: 1.23 ± 0.22 kcal/mol
- folding stability dG unfold [3]: 0.823 ± 0.21 kcal/mol

Sequence: SAGGSAGGSAGMLARITLSTPEKPVEYIVPESEVEEYIKKLNLPEDTEVTVTPVDPAALLSAGGSAGGSAGG [r17_395_JUSTAS]
- folding stability dG unfold [1]: 0.574 ± 0.022 kcal/mol
- folding stability dG unfold [2]: 1.8 ± 0.032 kcal/mol
- folding stability dG unfold [3]: 1.4 ± 0.037 kcal/mol

Sequence: SAGGSAGGSAGMLPLEELLKKNPKPIKVLVKVGDTEYLVEVTPGEKKYTIKVKPLKKSKPSAGGSAGGSAGG [r11_549_TrMRF]
- folding stability dG unfold [1]: 1.08 ± 0.026 kcal/mol
- folding stability dG unfold [2]: 1.55 ± 0.047 kcal/mol
- folding stability dG unfold [3]: 1.41 ± 0.076 kcal/mol

Sequence: SAGGSAGGSAGMPEKVTLTFERSSEVFDPKLGKWRTLPSTEVVEFDSEEEAEELKEKLGLSAGGSAGGSAGG [r11_984_JUSTAS]
- folding stability dG unfold [1]: -0.506 ± 0.55 kcal/mol
- folding stability dG unfold [2]: 0.575 ± 0.36 kcal/mol
- folding stability dG unfold [3]: 0.123 ± 0.31 kcal/mol

Sequence: SAGGSAGGSAGMPKVEAVDISYSADPNSKSYTITIKSPDGEPIVLTLNSPSEIENLELVLSAGGSAGGSAGG [r11_711_JUSTAS]
- folding stability dG unfold [1]: 1.19 ± 0.026 kcal/mol
- folding stability dG unfold [2]: 1.34 ± 0.1 kcal/mol
- folding stability dG unfold [3]: 1.34 ± 0.13 kcal/mol

Sequence: SAGGSAGGSAGMPLYIIEVEKEDGSKITITIPENMTEEEIKKIAEELGIKKVEIIKKEDLSAGGSAGGSAGG [r11_490_TrROS_Hall]
- folding stability dG unfold [1]: 1.91 ± 0.061 kcal/mol
- folding stability dG unfold [2]: 1.8 ± 0.053 kcal/mol
- folding stability dG unfold [3]: 1.84 ± 0.087 kcal/mol

Sequence: SAGGSAGGSAGMRIVIEVPEDTTVEELAKKLADLGYEVEIRVERDENGRLLVVIEIRPKDSAGGSAGGSAGG [r11_1050_TrROS_Hall]
- folding stability dG unfold [1]: 2.66 ± 0.088 kcal/mol
- folding stability dG unfold [2]: 2.88 ± 0.12 kcal/mol
- folding stability dG unfold [3]: 2.8 ± 0.14 kcal/mol

Sequence: SAGGSAGGSAGMRIVLRLPRDVPLEALRRELEALGGEVRIETEDDPDGRLLFVVELRPKESAGGSAGGSAGG [r11_1050_TrMRF]
- folding stability dG unfold [1]: 1.63 ± 0.061 kcal/mol
- folding stability dG unfold [2]: 1.81 ± 0.14 kcal/mol
- folding stability dG unfold [3]: 1.8 ± 0.14 kcal/mol

Sequence: SAGGSAGGSAGMRKVVTGKEAVVKLTGIPPEVLEAMSEEELRALVAPLVEAGKVDEIELKSAGGSAGGSAGG [r11_80_JUSTAS]
- folding stability dG unfold [1]: -0.0624 ± 0.17 kcal/mol
- folding stability dG unfold [2]: 0.898 ± 0.052 kcal/mol
- folding stability dG unfold [3]: 0.601 ± 0.13 kcal/mol

Sequence: SAGGSAGGSAGMRPVTSVYYDPNTGRLYARFPDGVVANYELTPDGSVRLVSVAPAHPDLDSAGGSAGGSAGG [r17_61_TrMRF]
- folding stability dG unfold [1]: 0.992 ± 0.04 kcal/mol
- folding stability dG unfold [2]: 1.64 ± 0.059 kcal/mol
- folding stability dG unfold [3]: 1.42 ± 0.066 kcal/mol

Sequence: SAGGSAGGSAGMRTVEVKVVFKEGDKEFEKTITITLSPDDPSLEERAKEIAEKGIVVEIIRSAGGSAGGSAG [r3_30_JUSTAS]
- folding stability dG unfold [1]: 1.62 ± 0.055 kcal/mol
- folding stability dG unfold [2]: 1.99 ± 0.12 kcal/mol
- folding stability dG unfold [3]: 1.75 ± 0.15 kcal/mol

Sequence: SAGGSAGGSAGMRVVEVYRLPDGSYRIRFPDGTEVEVSPEELEEVARRLGADEVRVRPELSAGGSAGGSAGG [r11_312_JUSTAS]
- folding stability dG unfold [1]: 2.4 ± 0.056 kcal/mol
- folding stability dG unfold [2]: 4.201 ± 0.041 kcal/mol
- folding stability dG unfold [3]: 3.78 ± 0.051 kcal/mol

Sequence: SAGGSAGGSAGMSALVLKVKIYYPKELFSPEEIEKIKSARIEVEPFLVEVKIDPETGELGSAGGSAGGSAGG [r17_310_TrMRF]
- folding stability dG unfold [1]: 1.84 ± 0.03 kcal/mol
- folding stability dG unfold [2]: 2.744 ± 0.021 kcal/mol
- folding stability dG unfold [3]: 2.38 ± 0.061 kcal/mol

Sequence: SAGGSAGGSAGMTKIVIQYEVPPDKPPPDLEEIKKSLPGAENIEITREELPNGTWVYTVESAGGSAGGSAGG [r17_205_JUSTAS]
- folding stability dG unfold [1]: 0.694 ± 0.19 kcal/mol
- folding stability dG unfold [2]: 0.405 ± 0.3 kcal/mol
- folding stability dG unfold [3]: 0.593 ± 0.26 kcal/mol

Sequence: SAGGSAGGSAGMTKTITVGDKKVNVTITPLPTPTTKVTITFPDGSTKTVTLPAGTPITLGSAGGSAGGSAGG [r11_525_JUSTAS]
- folding stability dG unfold [1]: 0.566 ± 0.045 kcal/mol
- folding stability dG unfold [2]: 0.176 ± 0.064 kcal/mol
- folding stability dG unfold [3]: 0.326 ± 0.054 kcal/mol

Sequence: SAGGSAGGSAGMTLEELAAADPDAVVPVKVPGTDTDVDVTVEPGAVRFTFPDGTTATVPASAGGSAGGSAGG [r17_128_JUSTAS]
- folding stability dG unfold [1]: -0.307 ± 0.11 kcal/mol
- folding stability dG unfold [2]: 0.112 ± 0.19 kcal/mol
- folding stability dG unfold [3]: -0.046 ± 0.17 kcal/mol

Sequence: SAGGSAGGSAGMTPEEEVEYEIEVPDPNSDNLKTKIKLKFPVGTPEEEIKKKAEELAKKLSAGGSAGGSAGG [r11_516_JUSTAS]
- folding stability dG unfold [1]: 1.67 ± 0.11 kcal/mol
- folding stability dG unfold [2]: 1.67 ± 0.093 kcal/mol
- folding stability dG unfold [3]: 1.73 ± 0.19 kcal/mol

Sequence: SAGGSAGGSAGMTPGPAPRPKVTVEPSLSEVPEDDSIVTTTTVTFPDTGETTSSTTTSSASAGGSAGGSAGG [r17_31_JUSTAS]
- folding stability dG unfold [1]: 0.337 ± 0.064 kcal/mol
- folding stability dG unfold [2]: 1.24 ± 0.051 kcal/mol
- folding stability dG unfold [3]: 1 ± 0.084 kcal/mol

Sequence: SAGGSAGGSAGMTPVEITDPNSDKTYTYDPEKKTLTKYYPGEGKTETFPLTSEEEAKKLLSAGGSAGGSAGG [r11_936_JUSTAS]
- folding stability dG unfold [1]: -0.536 ± 0.13 kcal/mol
- folding stability dG unfold [2]: 0.396 ± 0.069 kcal/mol
- folding stability dG unfold [3]: 0.127 ± 0.08 kcal/mol

Sequence: SAGGSAGGSAGMTTLTVTVPAPPDALTPEDVVALLRPEYPDATITVTREGDTLVVTVTVASAGGSAGGSAGG [r11_7_JUSTAS]
- folding stability dG unfold [1]: 3.31 ± 0.058 kcal/mol
- folding stability dG unfold [2]: 2.39 ± 0.033 kcal/mol
- folding stability dG unfold [3]: 2.83 ± 0.047 kcal/mol

Sequence: SAGGSAGGSAGMTVEVVKSVVPTKTNETVIVTTVTEVEPPTGKVTTLETKTVSTANPELLSAGGSAGGSAGG [r11_777_JUSTAS]
- folding stability dG unfold [1]: -0.755 ± 0.12 kcal/mol
- folding stability dG unfold [2]: -0.395 ± 0.11 kcal/mol
- folding stability dG unfold [3]: -0.369 ± 0.23 kcal/mol

Sequence: SAGGSAGGSAGMTYVYPGPDGKEYLAEVDPNIPGAEVTVTPPDTGETVTVPLSQVTEVPPSAGGSAGGSAGG [r11_822_JUSTAS]
- folding stability dG unfold [1]: 0.56 ± 0.05 kcal/mol
- folding stability dG unfold [2]: -0.449 ± 0.18 kcal/mol
- folding stability dG unfold [3]: 0.222 ± 0.063 kcal/mol
